Laboratory results as given in patent publication US20200339680A1 (Alector, published 2020).

Tests used:
[1] = target: T1, human TMEM106B (human, UniProt Q9NUM4 2-274); assay: FACS HEK+huTMEM 10 ug/ml;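 further: flow cytometric binding of purified mouse IgG antibodies to HEK293 cells transiently expressing human TMEM106B, read as median fluorescence intensity on live cells with propidium iodide-positive cells excluded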
T1 construct: full-length, transiently expressed on HEK293 cells, or natively expressed on HeLa, U251 and A549 cells (the cell is named under assay); also the source of the Pepscan peptides; also called huTMEM106B; huTMEM
Procedure: (§1) Purified anti-TMEM106B antibodies were evaluated for their binding affinity to various TMEM106B-expressing cell lines including HEK293 transiently transfected with human/cyno/mouse TMEM106B, as well as HeLa cells and A549 cells. Antibodies tested for this experiment were mouse IgGs purified from hybridoma supernatant. Affinity binding to cells was determined as follows. Briefly, 1×10\hat{ }5 cells were aliquoted per well in 96-well round bottom plates and incubated with 50 μL of purified anti-TMEM106B antibody at various concentrations (10× dilutions starting at 10 μg/ml) in FACS buffer (PBS+2% FBS+1 mM EDTA). […] Sorting was performed on a iQue (Intellicyt), with sort gates drawn to exclude dead (propidium iodide+) cells. Binding data was analyzed using median fluorescent intensity (MFI) and graphed in Prism. Values presented are MFI.

[2] = target: T1, human TMEM106B; assay: FACS HEK+huTMEM 0.1 ug/ml (2nd column so headed);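 further: flow cytometry binding of purified anti-TMEM106B mouse IgG to HEK293 cells transiently transfected with TMEM106B, read as median fluorescence intensity on live (propidium iodide-negative) cells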
[3] = target: T1, human TMEM106B; assay: FACS A549 1 ug/ml
Procedure: as §1

[4] = target: T1, human TMEM106B; assay: FACS HEK+huTMEM 1.0 ug/ml;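 further: binding of purified mouse IgG antibodies to HEK293 cells transiently expressing human TMEM106B, read by flow cytometry as median fluorescence intensity of live, propidium iodide-negative cells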
Procedure: as §1

[5] = target: T1, human TMEM106B; assay: FACS HEK+huTMEM 0.1 ug/ml;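 further: flow cytometry binding of purified mouse IgG antibodies to HEK293 cells transiently expressing TMEM106B, read as median fluorescence intensity on live cells (propidium iodide negative gating)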
Procedure: as §1

[6] = target: T1, human TMEM106B; assay: FACS A549 10 ug/ml
Procedure: as §1

[7] = target: T1, human TMEM106B; assay: FACS A549;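 further: flow cytometry of cells incubated on ice for 1 h with hybridoma supernatant or purified antibody at 10 µg/mL, dead propidium iodide-positive cells gated out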
Procedure: (§2) All cells were cultured in either T75 or T150 flasks. […] The enzyme was quenched by addition of fresh media, and the cells were then distributed into 96-well plates for FACS analysis.
(§3) FACS analysis was performed as follows. Each cell type was aliquoted in 96-well round bottom plates (2×10^5 cells per well), washed once with FACS buffer (PBS+2% FBS+1 mM EDTA), and incubated with 50 μL of hybridoma supernatant or purified antibody (10 μg/ml in FACS buffer) on ice for 1 hour. […] Following this secondary incubation, the cells were again washed 2× with ice-cold FACS buffer and resuspended in a final volume of 50 μL of FACS buffer+0.25 μl/well propidium iodide (Fisher Scientific #4BDB556463). Analysis was performed on a FACSCanto system (BD Biosciences) or iQue (Intellicyt), with sort gates drawn to exclude dead (i.e., propidium iodide positive) cells.

[8] = target: T2, mouse TMEM106B (mouse, UniProt Q80X71 2-275); assay: FACS Neuro2a;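 further: flow cytometry of antibody binding to cells: hybridoma supernatant or purified antibody at 10 µg/ml, 1 h on ice, secondary detection, propidium iodide–positive dead cells gated out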
T2 construct: transiently expressed on HEK293 cells, or native on mouse Neuro2a cells; also called moTMEM106B; murine TMEM106B
Procedure: as §2, §3

[9] = target: T1, human TMEM106B; assay: FACS U251
[10] = target: T1, human TMEM106B; assay: FACS HeLa
Procedure: as §2, §3

B1: TM-39 (antibody, V domains shown)
VH: HVQRQQSGTELAKPGASVKLSCKTSGYTFTDYWMHWIKQRPGQGLEWIGFINPSSGYTKYNQNFKDKATLTADKSSSTAYMQLSSLTYEDSAVFYCAREAGSISDWYFDVWGTGTTVTVSS
VL: DIVMTQAAPSIPVTPGESVSISCRSSKTLLNSNGNTYLYWFLQRPGQPPQLLIYRMSNLASGVPDRFSGSGSGTAFTLRISRVEAEDVGVYYCMQHLDYPYTFGGGTQLEIK
B1 was tested, and the MFI [1] was 51900 MFI, the MFI [2] was 3850 MFI and the MFI [3] was 3610 MFI. The MFI [4] was 55600 MFI, the MFI [5] was 19200 MFI and the MFI [6] was 5330 MFI.

B2: TM-24 (antibody, V domains shown)
VH: QVQLKQSGPGQVQPSQSLSITCTVSGFSLSDYGVHWVRQSPGKGLEWLGVIWNNGNTDYNAAFISRLSINKDNSKSQVFFKMTSLQADDTAIYYCVRSLRPLHFDYWGQGTTVTVSS
VL: DIVMTQSPSSLTMSVGQKVTMNCKSSQSLLNSNNQQNYLAWYQQKPGQSPKLLVYFASIRESGVPDRFIGSGSGTDFTLTINSVQAEDLADYFCQQHYSTPFTFGSGTKLEIR
notes: mouse IgG (hybridoma)
With B2 the MFI [1] was 66300 MFI, the MFI [2] was 3620 MFI and the MFI [3] was 2880 MFI. For the same binder, the MFI [4] was 64500 MFI, the MFI [5] was 22000 MFI and the MFI [6] was 4480 MFI.

B3: TM-1 (antibody, V domains shown)
VH: QVQLQQSGAELVRPGTSVKVSCKASGYAFTNYLIEWVKQRPGQGLEWIGVINPGSGGTKYNEKLKGKATLTADKSSSTAYMQLSSLTSVDSAVYFCARRGYTIYDFYAMDYWGQGTSVTVSS
VL: DVLMTQTPLSLPVSLGDHASISCRSSQSIVYNNGNTYLEWYLQKPGQSPKLLIYKVSNRFSGVPDRFSGSGSGTDFTLKISRVEAEDLGVYYCFQVSHVPFTFGSGTKLEIK
B3 was tested, and the MFI [7] was 1460 MFI, the MFI [1] was 2380 MFI and the MFI [2] was 655 MFI. It also gave an MFI [3] of 364 MFI, an MFI [8] of 253 MFI and an MFI [9] of 244 MFI. It also gave an MFI [4] of 2010 MFI, an MFI [10] of 253 MFI and an MFI [5] of 1330 MFI. For the same binder, the MFI [6] was 409 MFI.

B4: TM-30 (antibody, V domains shown)
VH: QVQLQQSGPELVKPGASVKLSCKASDNTFTNYDVNWVRQRPGQGLEWIGWIYPRDGTTIYNEKFKGRATLTVDTSSSTAYMELHSLTSEDSAVFFCARTLPQAMDYWGQGTSVTVSS
VL: DVLMTQSPLSLPVSLGDQVSISCRSSQTIVHRNGNTYLEWYLQKPGQSPKLLIYKVSNRFSGVPDRFSGSGSGTDFTLKISRVEAEDLGVYYCFQGSHLPWTFGGGTKLEIK
notes: mouse IgG (hybridoma)
B4 showed an MFI [1] of 61500 MFI, an MFI [2] of 3070 MFI and an MFI [3] of 3030 MFI. It also gave an MFI [4] of 63500 MFI, an MFI [5] of 18400 MFI and an MFI [6] of 4040 MFI.

B5: TM-32 (antibody, V domains shown)
VH: EVQLQQSGAELVRPGASVRLSCIASGFNIKDYYMYWVKQRPEQGLEWIGRIDPEDGDTEYVPKFQGKATMTADTSSNTAYLQLSSLTSEDIGVYYCTTRTWDLYYAVDNWGQGTSVTVSS
VL: DVLMTQTPLSLPVSLGDQASISCRSSQNIVHSNGNTYLEWYLQKPGQSPKLLIDKVSNRFSGVPDRFSGSGSGTDFTLKISRVEAEDLGIYYCFQGSHVPFTFGSGTKLEIK
With B5 the MFI [1] was 61100 MFI, the MFI [2] was 4100 MFI and the MFI [3] was 3930 MFI. The MFI [4] was 63300 MFI, the MFI [5] was 20300 MFI and the MFI [6] was 6100 MFI.

B6: TM-31 (antibody, V domains shown)
VH: QVQLQQSGAELAKPGASVKVSCKASGYTFISYWMNWVKQRPGQGLEWIGYINPTSGYTRYNQKFKDKATLTADKSSSTAYMQLSSLTYEDSAVYYCARSPPTVVLIGYFDYWGQGTTLTVSS
VL: DIKMTQSPSSMYASLGERVTFTCKASQDINSYLSWFQQKPGKSPKTLIYRGNGLVDGVPSRFSGSGSGQDYSLTISSLEYEDMGIYYCLQYDEFPFTFASGTKLEIK
notes: mouse IgG (hybridoma)
With B6 the MFI [1] was 6060 MFI, the MFI [2] was 596 MFI and the MFI [3] was 403 MFI. It also gave an MFI [8] of 325 MFI, an MFI [9] of 352 MFI and an MFI [4] of 3680 MFI. It also gave an MFI [10] of 799 MFI, an MFI [5] of 1390 MFI and an MFI [6] of 527 MFI.
